PMC2811263 (Arteriosclerosis, thrombosis, and vascular biology, 2009)

Experiments:
[1] = molecular target: T1, wild-type mouse GPIHBP1 (mouse, UniProt Q9D1N2 23-198); assay: binding of added LPL to transfected cells, bound LPL quantified by ELISA
T1 sequence (looked up): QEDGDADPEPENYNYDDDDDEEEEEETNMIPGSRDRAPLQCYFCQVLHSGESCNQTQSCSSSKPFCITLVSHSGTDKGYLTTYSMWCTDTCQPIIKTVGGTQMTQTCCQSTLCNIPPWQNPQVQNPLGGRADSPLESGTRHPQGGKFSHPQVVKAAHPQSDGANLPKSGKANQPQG

[2] = molecular target: T2, wild-type human GPIHBP1 (glycosylphosphatidylinositol-anchored high-density lipoprotein-binding protein 1) (human, UniProt Q8IV16 21-151); assay: as above
T2 sequence (looked up): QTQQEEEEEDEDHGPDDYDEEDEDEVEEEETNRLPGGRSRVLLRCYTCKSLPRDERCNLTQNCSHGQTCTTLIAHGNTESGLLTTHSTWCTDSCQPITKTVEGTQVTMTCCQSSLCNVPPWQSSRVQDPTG

B1: avian lipoprotein lipase (LPL) (enzyme, UniProt P11602 26-490, looked up)
chain: SDPEAEMNFEGIESKFSLRTPAEPDEDVCYLVPGQMDSLAQCNFNHTSKTFVVIHGWTVTGMYESWVPKLVDALYKREPDSNVIVVDWLVRAQQHYPVSAAYTKLVGKDVAMFIDWMEEKFNYPLNNVHLLGYSLGAHAAGIAGSLTKKKVNRITGLDPAGPTFEYADAPIRLSPDDADFVDVLHTYTRGSPDRSIGIQKPVGHIDIYPNGGGFQPGCNLGEALRLIAEKGFSDVDQLVKCSHERSIHLFIDSLLYEEKPSMAYRCNTKEAFEKGLCLSCRKNRCNNLGYKVNRVRTKRNTKMYLKTRAQMPYKVFHYQVKIHFFGKTNVTKVDQPFLISLYGTLDESENIPFTLPEVSSNKTFSFLIYTEVDIGDLLMLKLQWEKDTFFSWSDWWTPFAFTIQRVRVKSGETQKKVVFCSRDGSSRLGKGEEAAIFVKCLEQPVSRKRGGAKKASKENSAHESA
fold more LPL bound than by cells expressing GPIHBP1-Q114P [1]: 20.2 fold | fold more LPL bound than by cells expressing GPIHBP1-Q115P [2]: 39.8 fold
